Measurements taken from patent US20240148892A1.

Tests used:
[1] = biological target: human full-length B7H3 expressed on MCF-7 cells (human) (UniProt Q5ZPR3); test: flow cytometry (FACS) on MCF-7 cells expressing human full-length B7H3; negative control
[2] = biological target: human full-length B7H3 expressed on MCF-7 cells (human) (UniProt Q5ZPR3); test: cell-based or functional assay
[3] = biological target: cynomolgus monkey B7H3 on transfected FlpinCHO cells (cynomolgus monkey); test: flow cytometry (FACS) on FlpinCHO cells transfected with cynomolgus monkey B7H3; negative control

Sequence of human full-length B7H3 expressed on MCF-7 cells (human) (Q5ZPR3 29-534 limits assumed): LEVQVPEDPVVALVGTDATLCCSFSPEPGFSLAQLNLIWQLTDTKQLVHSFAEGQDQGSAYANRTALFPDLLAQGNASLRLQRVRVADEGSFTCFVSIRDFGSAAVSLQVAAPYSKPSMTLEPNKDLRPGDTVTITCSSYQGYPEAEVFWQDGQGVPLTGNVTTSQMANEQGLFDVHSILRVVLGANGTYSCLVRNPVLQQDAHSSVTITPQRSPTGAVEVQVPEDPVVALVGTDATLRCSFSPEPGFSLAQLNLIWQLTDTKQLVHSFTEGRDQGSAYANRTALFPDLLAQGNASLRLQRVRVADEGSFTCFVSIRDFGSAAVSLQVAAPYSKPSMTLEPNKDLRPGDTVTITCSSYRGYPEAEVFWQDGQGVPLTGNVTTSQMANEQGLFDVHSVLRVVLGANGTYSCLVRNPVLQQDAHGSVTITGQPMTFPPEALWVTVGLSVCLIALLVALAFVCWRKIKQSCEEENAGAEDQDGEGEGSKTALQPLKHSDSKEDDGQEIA

- Maximum MFI [1]: 47.8 MFI
- Antibody internalization Maximum MFI, MCF-7 cells, high-content imaging (negative control) [2]: 21 MFI
- Maximum MFI [3]: 6.67 MFI
Substance: hIgG1 isotype (antibody)
